These results are taken from patent US20240228612A1 (SICHUAN KELUN BIOTECH BIOPHARMACEUTICAL, published 2024).

The target in one test is T1, human Nectin-4 protein (human, UniProt Q96NY8 32-349).
T1 construct: Purified protein used for coating in ELISA and as analyte in Octet; also called human Nectin-4 antigen
T1 sequence (looked up): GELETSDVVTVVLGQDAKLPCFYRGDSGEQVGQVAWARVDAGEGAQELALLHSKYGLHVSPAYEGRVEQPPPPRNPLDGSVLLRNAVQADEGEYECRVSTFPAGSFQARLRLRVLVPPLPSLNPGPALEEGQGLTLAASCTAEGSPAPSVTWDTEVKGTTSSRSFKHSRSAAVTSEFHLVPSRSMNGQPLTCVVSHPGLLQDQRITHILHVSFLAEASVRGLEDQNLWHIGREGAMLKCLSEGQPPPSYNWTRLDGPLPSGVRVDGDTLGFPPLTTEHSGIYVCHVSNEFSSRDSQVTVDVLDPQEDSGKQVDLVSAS
Briefly: ELISA, coated human Nectin-4, anti-human-HRP. The source says: The Nectin family includes members of Nectin-1, Nectin-2, Nectin-3 and Nectin-4, and the members share a sequence identity of about 25%, but have similar structure and function. […]

Test [1] addresses T2, human Nectin-4 on cell membrane surface (human, UniProt Q96NY8 32-510).
T2 construct: whole, on cells; also called A549-Nectin-4; T24-Nectin-4
T2 sequence (looked up): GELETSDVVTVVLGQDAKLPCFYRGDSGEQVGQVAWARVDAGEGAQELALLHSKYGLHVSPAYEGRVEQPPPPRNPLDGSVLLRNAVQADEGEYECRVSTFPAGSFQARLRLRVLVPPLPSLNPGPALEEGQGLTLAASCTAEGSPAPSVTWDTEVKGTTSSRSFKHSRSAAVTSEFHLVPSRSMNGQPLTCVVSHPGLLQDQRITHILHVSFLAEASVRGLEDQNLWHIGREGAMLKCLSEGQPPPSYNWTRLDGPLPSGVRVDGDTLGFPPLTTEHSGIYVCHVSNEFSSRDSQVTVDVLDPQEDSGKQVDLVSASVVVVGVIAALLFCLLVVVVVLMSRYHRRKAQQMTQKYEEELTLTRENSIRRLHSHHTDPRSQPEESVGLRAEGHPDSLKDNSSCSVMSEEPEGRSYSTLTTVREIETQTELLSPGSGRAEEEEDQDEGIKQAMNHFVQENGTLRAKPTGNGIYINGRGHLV
The test is described as follows: flow cytometry on NCI-N87 cells.

B1: anti-human Nectin-4 humanized monoclonal antibody 56HZ (antibody, human IgG1, kappa, V domains shown)
VH: QVQLQESGPGLVKPSQTLSLTCTVSGYFNSITSDYDWHWIRHHPGKGLEWMGYISFSGRTYYNPSLKSRVTISHDTSKNQFSLKLSSVTAADTAVYYCARGNYDGFDYWGQGTLVTVSS
VL: DIVLTQSPATLSLSPGERATLSCRASQNIGTSIHWYQHKPGQSPRLLIKFASESISGIPARFSGSGSGTDFTLTISSLEPEDFAVYYCQQSKSWPTYTFGGGTKVEIKR
notes: Human IgG1 heavy chain constant region, human kappa light chain constant region; expressed in CHO-E cells
Regarding B1, the “EC50 (read off the curve)” value in the test with human Nectin-4 protein is roughly 0.006 µg/mL. The molecule further showed an EC50 in test [1] of 0.0164 µg/mL.
